{"source": "patent US20250197482A1", "key": {"[1]": {"target": "426C-WITO soluble Env trimer (clade B), stabilized in the prefusion-closed conformation (HIV-1)", "experiment": "ELISA, lectin-captured trimer, expression supernatant, single point, OD 450 nm, column 426c-WITO-degly3"}, "[2]": {"target": "K169V variant of CAP256 soluble Env trimer (HIV-1)", "experiment": "ELISA, lectin-captured trimer, expression supernatant, single point, OD 450 nm"}, "[3]": {"target": "JRFL soluble Env trimer (clade B), stabilized in the prefusion-closed conformation (HIV-1)", "experiment": "ELISA, lectin-captured trimer, expression supernatant, single point, OD 450 nm"}, "[4]": {"target": "CAP256 soluble Env trimer (clade C), stabilized in the prefusion-closed conformation (HIV-1)", "experiment": "ELISA, lectin-captured trimer, expression supernatant, single point, OD 450 nm"}, "[5]": {"target": "HIV-1 Env of strain WITO.33 (Env-pseudotyped virus) (HIV-1)"}, "[6]": {"target": "CAP256 wk34c80 (HIV-1)"}}, "data": [{"substance": "VRC01 (antibody)", "values": [{"measurement": "ELISA binding", "setting": "[1]", "result": 2.53}, {"measurement": "ELISA binding", "setting": "[2]", "result": 2.65}, {"measurement": "ELISA binding", "setting": "[3]", "result": 2.29}, {"measurement": "ELISA binding", "setting": "[4]", "result": 2.31}, {"measurement": "% neutralization, single point, Env-pseudotyped virus on TZM-bl", "setting": "[5]", "result": 0, "unit": "%"}, {"measurement": "% neutralization, single point, Env-pseudotyped virus on TZM-bl", "setting": "[6]", "result": 100, "unit": "%"}]}]}
